Values quoted from earlier work as cited in article PMC8465902.

What was measured:
IscU (Escherichia coli) = IscU (Escherichia coli) (UniProt P0ACD4)
ISCU (Homo sapiens) = ISCU (Homo sapiens) (UniProt Q9H1K1)
Chain of UniProt Q9H1K1 (Q9H1K1 35-167): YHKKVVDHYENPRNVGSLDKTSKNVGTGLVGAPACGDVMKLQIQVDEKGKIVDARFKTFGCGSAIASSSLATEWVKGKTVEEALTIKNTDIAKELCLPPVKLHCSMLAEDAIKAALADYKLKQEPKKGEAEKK

Chain of UniProt P0ACD4 (P0ACD4 whole entry): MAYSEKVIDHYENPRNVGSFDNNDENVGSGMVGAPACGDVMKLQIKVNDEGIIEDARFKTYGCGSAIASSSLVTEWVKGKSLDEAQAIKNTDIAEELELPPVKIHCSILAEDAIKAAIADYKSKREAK

Kd (ISCU (Homo sapiens)) [nM] | Substance | Kd (IscU (Escherichia coli)) [nM]
 | IscS (from UniProt P0A6B7) | 2000
1100 | NFU1 CTD (from UniProt Q9UMS0) | 
